Measurements: US20190290692A1 (MINERVA BIOTECHNOLOGIES, published 2019)

B7: PSMGFR minus 10 amino acids from the C-terminus (peptide)
peptide: GTINVHDVETQFNQYKTEAASRYNLTISDVSVSDV
notes: also called C-10; C-10 PSMGFR

Columns and labels:
[1] = biological target: T1, PSMGFR peptide (Primary Sequence of the MUC1 Growth Factor Receptor); experiment: ELISA, peptide on plate (FIG. 2B)
T1 construct: Immobilised on ELISA plates or attached to 1 um or 4.5 um beads; also called MUC1* peptide; MUC1* PSMGFR peptide
T1 peptide: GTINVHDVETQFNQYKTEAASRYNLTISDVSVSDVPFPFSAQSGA
Procedure: (§1) FIGS. 2A-2F show results of ELISA assays. MUC1* peptides PSMGFR, PSMGFR minus 10 amino acids from the N-terminus aka N-10, or PSMGFR minus 10 amino acids from the C-terminus, aka C-10 are immobilized on the plate and the following are assayed for binding: NME7-AB (A), MN-C2 monoclonal antibody (B), MN-E6 monoclonal antibody (C), or dimeric NME1 (D). […] MUC1* peptides PSMGFR minus 10 amino acids from the N-terminus aka N-10, or PSMGFR minus 10 amino acids from the C-terminus, aka C-10, are immobilized on the plate and the following are assayed for binding: MN-C3 (E) and MN-C8 (F).

[2] = biological target: T2, PSMGFR minus 10 amino acids from the N-terminus; experiment: competitive ELISA, peptide on plate (FIG. 3C)
T2 construct: also called N-10; N-10 PSMGFR
T2 peptide: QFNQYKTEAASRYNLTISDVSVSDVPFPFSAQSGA
Procedure: FIGS. 3A-3C show results of competitive ELISA assays. The PSMGFR MUC1* peptide is immobilized on the plate and dimeric NM23-H1, aka NME1, is added either alone or after the MN-E6 antibody has been added (A). The same experiment was performed wherein NM23-H7, NME7-AB, is added alone or after MN-E6 has been added (B). […] In a similar experiment (C), PSMGFR or PSMGFR minus 10 amino acids from the N-terminus, aka N-10, is immobilized on the plate. Dimeric NM23-H1 is then added. Anti-MUC1* antibodies MN-E6, MN-C2, MN-C3 or MN-C8 are then tested for their ability to compete off the NM23-H1.

[3] = biological target: T1, PSMGFR peptide (Primary Sequence of the …); experiment: ELISA, peptide immobilised on plate (FIG. 22A)
Procedure: (§2) FIGS. 22A-22C show graphs of ELISAs wherein the assay plate surface was immobilized with either PSMGFR peptide, PSMGFR minus 10 amino acids from the N-terminus or minus 10 amino acids from the C-terminus. The MN-C3 antibody variants were then assayed for binding to the various MUC1* peptides. A) Purified mouse monoclonal MN-C3 antibody; B) Impure humanized MN-C3 antibody; and C) the humanized MN-C3 scFv-Fc. ELISAs show binding to the PSMGFR peptide as well as to certain deletion peptides.

[4] = biological target: B7; experiment: ELISA, N-10 and C-10 peptides on plate (FIG. 2E)
Procedure: as §1

[5] = biological target: T1, PSMGFR peptide (Primary Sequence of the …); experiment: ELISA, surface coated with PSMGFR peptide
Procedure: Humanized MN-C2 scFv is then incubated with the surface, washed and detected according to standard methods.

[6] = biological target: T1, PSMGFR peptide (Primary Sequence of the …); experiment: ELISA, PSMGFR on surface (FIG. 12)
[7] = biological target: T1, PSMGFR peptide (Primary Sequence of the …); experiment: ELISA, peptide immobilised on plate (FIG. 22B)
Procedure: as §2

[8] = biological target: T2, PSMGFR minus 10 amino acids from the …; experiment: selection screens
[9] = biological target: T1, PSMGFR peptide (Primary Sequence of the …); experiment: ELISA, peptide on plate (FIG. 2C)
Procedure: as §1

NME7-AB = biological target: T3, NME7-AB (human, UniProt Q9Y5B8 92-376); experiment: ELISA, peptide immobilised on plate (FIG. 2A)
T3 construct: also called NM23-H7
T3 sequence: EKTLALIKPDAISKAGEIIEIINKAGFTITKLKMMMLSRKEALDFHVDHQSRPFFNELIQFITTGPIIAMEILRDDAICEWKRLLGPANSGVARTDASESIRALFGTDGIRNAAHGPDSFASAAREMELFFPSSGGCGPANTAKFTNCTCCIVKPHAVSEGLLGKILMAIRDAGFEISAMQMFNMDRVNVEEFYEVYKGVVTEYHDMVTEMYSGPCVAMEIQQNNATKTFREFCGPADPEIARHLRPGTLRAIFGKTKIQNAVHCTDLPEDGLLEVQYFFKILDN
Procedure: as §1

dimeric NME1 = biological target: T4, dimeric NME1 (human, UniProt P15531 1-152, limits assumed); experiment: ELISA, peptide immobilised on plate (FIG. 2D)
T4 construct: Used in dimer form; also called NM23-H1 dimers; dimeric NM23-H1
T4 sequence (P15531 whole entry): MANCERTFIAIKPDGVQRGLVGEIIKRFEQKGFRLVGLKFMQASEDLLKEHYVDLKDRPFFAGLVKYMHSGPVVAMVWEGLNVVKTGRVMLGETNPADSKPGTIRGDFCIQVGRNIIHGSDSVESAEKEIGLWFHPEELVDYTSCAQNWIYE
Procedure: as §1

B1: mouse monoclonal antibody MN-C2 (antibody, V domains shown)
VH: EVQLEESGGGLVKPGGSLKLSCAASGFTFSGYAMSWVRQTPEKRLEWVATISSGGTYIYYPDSVKGRFTISRDNAKNTLYLQMSSLRSEDTAMYYCARLGGDNYYEYFDVWGAGTTVTVSS
VL: DIVITQSTASLGVSLGQRATISCRASKSVSTSGYSYMHWYQQRPGQPPKLLIYLASNLESGVPARFSGSGSGTDFTLNIHPVEEEDAATYYCQHSRELPFTFGGGTKLEIKR
notes: also called Min-C2
- binding result [1]: binds
- binding result [2]: binds

B2: mouse monoclonal antibody MN-C3 (antibody, V domains shown)
VH: QVQLQQSGPELVRPGVSVKISCKGSGYRFTDYAMNWVKQSHAKSLEWIGVISTFSGNTNFNQKFKGKATMTVDKSSSTAYMELARLTSEDSAMYYCARSDYYGPYFDYWGQGTTLTVSS
VL: DVLMTQTPLSLPVSLGDQASISCRSSQTIVHSNGNTYLEWYLQKPGQSPKLLIYKVSNRFSGVPDRFSGSGSGTDFTLKINRVEAEDLGVYYCFQGSHVPFTFGSGTKLEIK
notes: also called Min-C3
- binding result [2]: binds
- binding result [3]: binds
- binding result [4]: binds

B3: humanized MN-C2 scFv (scFv, V domains shown, not shown: small tags and cut ends)
VH: EVQLVESGGGLVKPGGSLRLSCAASGFTFSGYAMSWVRQAPGKGLEWVSTISSGGTYIYYPDSVKGRFTISRDNAKNSLYLQMNSLRAEDTAVYYCARLGGDNYYEYFDVWGKGTTVTVSS
VL: DIVLTQSPASLAVSPGQRATITCRASKSVSTSGYSYMHWYQQKPGQPPKLLIYLASNLESGVPARFSGSGSGTDFTLTINPVEANDTANYYCQHSRELPFTFGGGTKVEIKR
notes: also called huMN-C2 scFv; hMN-C2 scFv
- EC50 [5]: ~333 nM

B4: humanized MN-E6 scFv (scFv, V domains shown, not shown: small tags and cut ends)
VH: EVQLVESGGGLVKPGGSLRLSCAASGFTFSRYGMSWVRQAPGKRLEWVSTISGGGTYIYYPDSVKGRFTISRDNAKNTLYLQMNSLRAEDTAVYYCTRDNYGRNYDYGMDYWGQGTLVTVSS
VL: EIVLTQSPATLSLSPGERATLTCSATSSVSYIHWYQQRPGQSPRLLIYSTSNLASGIPARFSGSGSGSDYTLTISSLEPEDFAVYYCQQRSSSPFTFGSGTKVEIK
notes: also called hu MN-E6 scFv
- binding result [6]: binds

B5: humanized MN-C3 antibody (impure preparation) (antibody, V domains shown)
VH: QVQLVQSGAEVKKPGASVKVSCKASGYTFTDYAMNWVRQAPGQGLEWMGVISTFSGNTNFNQKFKGRVTMTTDTSTSTAYMELRSLRSDDTAVYYCARSDYYGPYFDYWGQGTTLTVSS
VL: DIVMTQTPLSLSVTPGQPASISCRSSQTIVHSNGNTYLEWYLQKPGQSPQLLIYKVSNRFSGVPDRFSGSGSGTDFTLKISRVEAEDVGVYYCFQGSHVPFTFGGGTKVEIKR
notes: also called Impure humanized MN-C3 antibody
- binding result [7]: binds

B6: mouse monoclonal antibody MN-E6 (antibody, V domains shown)
VH: EVKVVESGGDLVKPGGSLKLSCVVSGFTFSRYGMSWVRQTPGKRLEWVATISGGGTYIYYPDSVKGRFTISRDNAKNTLYLQMSSLKSEDTAMYHCTRDNYGRNYDYGMDYWGQGTSVTVSS
VL: QIVLTQSPAIMSASPGEEVTLTCSATSSVSYIHWFQQRPGTSPKLWIYSTSNLASGVPVRFSGSGYGTSYSLTISRMEAEDAATYYCQQRSSSPFTFGSGTKLEIK
notes: also called Min-E6; parent MN-E6 antibody
- binding result [8]: binds
- binding result [9]: binds

Binder: B7
- binding result (NME7-AB): no binding
- binding result (dimeric NME1): no binding
